Assay results taken from patent publication US20190389933A1 (published 2019).

B1: IL2Rbeta (receptor)
chain: AVNGTSQFTCFYNSRANISCVWSQDGALQDTSCQVHAWPDRRRWNQTCELLPVSQASWACNLILGAPDSQKLTTVDIVTLRVLCREGVRWRVMAIQDFKPFENLRLMAPISLQVVHVETHRCNISWEISQASHYFERHLEFEARTLSPGHTWEEAPLLTLKQKQEWICLETLTPDTQYEFQVRVKPLQGEFTTWSPWSQPLAFRTKPAALGKD
B2: XENP22553, humanized variant 1C11[PD-1]_H3L3 of anti-PD-1 clone 1C11 (antibody, V domains shown)
VH: QIQLVQSGSELKKPGASVKVSCKASGYTFTHYGMNWVRQAPGQGLEWMGWINTYTGEPTYADGFTGRFVFSLDTSVSTAYLQISSLKAEDTAVYFCARDYYGSSPYWGQGTLVTVSS
VL: DVLMTQSPDSLAVSLGERATINCKSSQSIVHSNGNTYLEWYQQKPGQSPKLLIYKVSNRFSGVPDRFSGSGSGTDFTLTISSLQAEDVAVYYCFQGSHVPNTFGGGTKVEIKR

Experiments:
[1] = biological target: 21480B; assay: Octet
[2] = biological target: histidine-tagged PD-1 (UniProt Q15116 25-167); assay: Octet
Sequence of histidine-tagged PD-1 (Q15116 25-167): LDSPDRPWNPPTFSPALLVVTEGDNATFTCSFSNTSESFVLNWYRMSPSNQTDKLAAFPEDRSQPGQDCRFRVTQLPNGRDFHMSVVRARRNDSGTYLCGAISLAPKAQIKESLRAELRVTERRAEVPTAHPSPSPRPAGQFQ

Binder | Kd [1] | Kd [2]
B1 | 8.1 nM | 
B2 |  | 19.1 nM
